# ± gives the uncertainty stated by the source.
# B1: RAS guanyl-releasing protein 1, residues 539 to 593; numbered along this chain, O95267 (parent)
# chain: GFPHNFQETTYLKPTFCDNCAGFLWGVIKQGYRCKDCGMNCHKQCKDLVVFECKK
# Variants of: B1
# Assay: abundance fitness (aPCA) (normalised: wild type 0, dead -1); higher = more abundant; growth selection in yeast, the domain comes from the species named
# Conditions: Homo sapiens
row,Variant,abundance fitness
1,GFPHNFQETTYLKPTFCDNCAGFLWGVIKQGYRCKDCGMNKHKQCKDLVVFECKK,-0.139 ± 0.084
2,GFPHNFQETTYLKPTFCDNCAGFLWGVIKQGYRCKDCGMNWHKQCKDLVVFECKK,-0.191 ± 0.073
3,GFPHNFQETTYLKPTFCDNCAGFLWGVIKQGYRCKDCGMNIHKQCKDLVVFECKK,-0.012 ± 0.091
4,GFPHNFQETTYLKPTFCDNCAGFLWGVIKQGYDCKDCGMNCHKQCKDLVVFECKK,-0.26 ± 0.14
5,GFPHNFQETTYLKPTFCDNCAGFLWGVIKQGYECKDCGMNCHKQCKDLVVFECKK,0.129 ± 0.079
6,GFPHNFQETTYLKPTFCDNCAGFLWGVIKQGYYCKDCGMNCHKQCKDLVVFECKK,-0.402 ± 0.12
7,GKPHNFQETTYLKPTFCDNCAGFLWGVIKQGYRCKDCGMNCHKQCKDLVVFECKK,-0.108 ± 0.085
8,GFPHNFQETTYLKPTFCDACAGFLWGVIKQGYRCKDCGMNCHKQCKDLVVFECKK,0.065 ± 0.084
9,GFPHNFQETTYLKPTFCDHCAGFLWGVIKQGYRCKDCGMNCHKQCKDLVVFECKK,-0.02 ± 0.12
10,GFPHNFQETTYLKPTFCDCCAGFLWGVIKQGYRCKDCGMNCHKQCKDLVVFECKK,-0.061 ± 0.093
11,GFPHNFQETTYLKPTFCDRCAGFLWGVIKQGYRCKDCGMNCHKQCKDLVVFECKK,-0.036 ± 0.06
12,GFPHNFQETTYLKPTFCDQCAGFLWGVIKQGYRCKDCGMNCHKQCKDLVVFECKK,-0.29 ± 0.17
13,GFPHNFQETTYLKPTFCDWCAGFLWGVIKQGYRCKDCGMNCHKQCKDLVVFECKK,0.082 ± 0.057
14,GFPHNFQETTYLKPTFCDNCAGFLWGVIKQGYRCDDCGMNCHKQCKDLVVFECKK,-0.096 ± 0.14
15,GFPHNFQETTYLKPTFCDNCAGFLWGVIKQGYRCHDCGMNCHKQCKDLVVFECKK,-0.029 ± 0.11
16,GFPHNFQETTYLKPTFCDNCAGFLWGVIKQGYRCLDCGMNCHKQCKDLVVFECKK,0.021 ± 0.044
17,GFPHNFQETMYLKPTFCDNCAGFLWGVIKQGYRCKDCGMNCHKQCKDLVVFECKK,-0.682 ± 0.24
18,GFPHNFQETTYLKPTFCDNCAGFLWGVIWQGYRCKDCGMNCHKQCKDLVVFECKK,-0.256 ± 0.14
19,GFPHNFQETTYLKPTFCDNWAGFLWGVIKQGYRCKDCGMNCHKQCKDLVVFECKK,-0.827 ± 0.45
20,GFPHNFQETTYLKPTFCFNCAGFLWGVIKQGYRCKDCGMNCHKQCKDLVVFECKK,-0.063 ± 0.099
21,GFPHNFQETTYLKPTFCYNCAGFLWGVIKQGYRCKDCGMNCHKQCKDLVVFECKK,-0.315 ± 0.17
22,GFPHNFQETTYLKPTFCDNCAGFLWGVIKQGYRCKDCGMNCAKQCKDLVVFECKK,-0.841 ± 0.095
23,GFPHNFQETTYLKPTFCDNCAGFLWGVIKQGYRCKDCGMNCFKQCKDLVVFECKK,-0.981 ± 0.23
24,GFPHNFQETTYLKPTFCDNCAGFLWGVIKQGYRCKDCGMNCWKQCKDLVVFECKK,-0.286 ± 0.1

row,Variant,abundance fitness
1,GFPHNFQETTYLKPTFCDNCAGFLWGVIKQGYRCKDCGMNCHKQSKDLVVFECKK,-0.486 ± 0.094
2,GFPHNFQETTYLKPTFCDNCAGFLWGVIKQGYRCKDCGMNCHKQNKDLVVFECKK,-0.647 ± 0.34
3,GFPHNFQETTYLKPTFCDNCAGFLWGVIKQGYRCKDCGMNCHKQWKDLVVFECKK,-0.772 ± 0.19
4,GFPHNFQETTYLKWTFCDNCAGFLWGVIKQGYRCKDCGMNCHKQCKDLVVFECKK,-0.108 ± 0.076
5,GFPHNFQETTYLKTTFCDNCAGFLWGVIKQGYRCKDCGMNCHKQCKDLVVFECKK,-0.767 ± 0.15
6,GFPANFQETTYLKPTFCDNCAGFLWGVIKQGYRCKDCGMNCHKQCKDLVVFECKK,-0.878 ± 0.17
7,GFPHNFQETTYLFPTFCDNCAGFLWGVIKQGYRCKDCGMNCHKQCKDLVVFECKK,-0.167 ± 0.12
8,GFPHNFQTTTYLKPTFCDNCAGFLWGVIKQGYRCKDCGMNCHKQCKDLVVFECKK,-0.274 ± 0.19
9,GFPHNFQRTTYLKPTFCDNCAGFLWGVIKQGYRCKDCGMNCHKQCKDLVVFECKK,-0.068 ± 0.085
10,GFPHNFQSTTYLKPTFCDNCAGFLWGVIKQGYRCKDCGMNCHKQCKDLVVFECKK,-0.191 ± 0.1
11,GFPHNFQETTYNKPTFCDNCAGFLWGVIKQGYRCKDCGMNCHKQCKDLVVFECKK,-0.768 ± 0.4
12,GFPHNFQETTYWKPTFCDNCAGFLWGVIKQGYRCKDCGMNCHKQCKDLVVFECKK,-0.298 ± 0.13
13,GFPHNFQETTYCKPTFCDNCAGFLWGVIKQGYRCKDCGMNCHKQCKDLVVFECKK,-0.183 ± 0.11
14,GFPHNFQETTYQKPTFCDNCAGFLWGVIKQGYRCKDCGMNCHKQCKDLVVFECKK,-0.337 ± 0.19
15,GFPHNFQETTYLKPTFCDNCAGPLWGVIKQGYRCKDCGMNCHKQCKDLVVFECKK,-0.409 ± 0.22
16,GFPHNFQETTYLKPTFVDNCAGFLWGVIKQGYRCKDCGMNCHKQCKDLVVFECKK,-0.878 ± 0.12
17,GFPHNFLETTYLKPTFCDNCAGFLWGVIKQGYRCKDCGMNCHKQCKDLVVFECKK,-0.149 ± 0.079
18,GFPHNFQETTYLKPTFCDNCAHFLWGVIKQGYRCKDCGMNCHKQCKDLVVFECKK,-0.078 ± 0.11
19,GFPHNFQETTYLKPTFCDNCAFFLWGVIKQGYRCKDCGMNCHKQCKDLVVFECKK,-0.386 ± 0.14
20,GFPHNFQETTYLKPTFCDNCARFLWGVIKQGYRCKDCGMNCHKQCKDLVVFECKK,-0.082 ± 0.047
21,GFPHNFQETTYLKPTFCDNCACFLWGVIKQGYRCKDCGMNCHKQCKDLVVFECKK,0.147 ± 0.088
22,GFPHNFQETTYLKPTFCDNCAGFLWGVIKQGYRCKDCGMNCHKQCKDIVVFECKK,-0.378 ± 0.12
23,GFPHNFQETTYLKPTFCDNCAGFLWGVIKQGCRCKDCGMNCHKQCKDLVVFECKK,-0.059 ± 0.07
24,GFPHIFQETTYLKPTFCDNCAGFLWGVIKQGYRCKDCGMNCHKQCKDLVVFECKK,-0.039 ± 0.082

row,Variant,abundance fitness
1,GFPHTFQETTYLKPTFCDNCAGFLWGVIKQGYRCKDCGMNCHKQCKDLVVFECKK,-0.026 ± 0.085
2,GFPHDFQETTYLKPTFCDNCAGFLWGVIKQGYRCKDCGMNCHKQCKDLVVFECKK,-0.104 ± 0.17
3,GFPHHFQETTYLKPTFCDNCAGFLWGVIKQGYRCKDCGMNCHKQCKDLVVFECKK,0.001 ± 0.092
4,GFPHCFQETTYLKPTFCDNCAGFLWGVIKQGYRCKDCGMNCHKQCKDLVVFECKK,-0.23 ± 0.079
5,GFPHNFQETTYLKPTFCDNCAGFLWGVIKQGYRCKDCGMNCHKQCKRLVVFECKK,-0.177 ± 0.08
6,GFPHNFQETTYLKPTFCDNCAGFLWGVIKQGYRCKDCGMNCHKQCKALVVFECKK,-0.056 ± 0.09
7,GFPHNFQETTYLKPTFCDNCVGFLWGVIKQGYRCKDCGMNCHKQCKDLVVFECKK,-0.071 ± 0.085
8,GFPHNFQETTYLKPTFCDNCTGFLWGVIKQGYRCKDCGMNCHKQCKDLVVFECKK,0.043 ± 0.11
9,VFPHNFQETTYLKPTFCDNCAGFLWGVIKQGYRCKDCGMNCHKQCKDLVVFECKK,-0.007 ± 0.11
10,WFPHNFQETTYLKPTFCDNCAGFLWGVIKQGYRCKDCGMNCHKQCKDLVVFECKK,-0.46 ± 0.34
11,GFPHNFQETTYLKPTFCDNCAGFLWVVIKQGYRCKDCGMNCHKQCKDLVVFECKK,-0.736 ± 0.12
12,GFPHNFQETTYLKPTFCDNCAGFEWGVIKQGYRCKDCGMNCHKQCKDLVVFECKK,-0.369 ± 0.13
13,GFPHNFQETTYLKPTFCDNCAGFHWGVIKQGYRCKDCGMNCHKQCKDLVVFECKK,-0.465 ± 0.22
14,GFPHNFQETTYLKPTFCDNCAGFPWGVIKQGYRCKDCGMNCHKQCKDLVVFECKK,-0.612 ± 0.2
15,GFPHNFQETTYLKPTFCDNCAGFLWGVIKQGYRCKDMGMNCHKQCKDLVVFECKK,-0.904 ± 0.24
16,GFPHNFQETTYLKPTFCDNCAGFLWGVIKQGYRCKDNGMNCHKQCKDLVVFECKK,-0.824 ± 0.3
17,GFPHNFQETTYLKPTFCDNCAGFLWGRIKQGYRCKDCGMNCHKQCKDLVVFECKK,-0.647 ± 0.11
18,GFPHNFQETTYLKPTFCDNCAGFLWGLIKQGYRCKDCGMNCHKQCKDLVVFECKK,-0.063 ± 0.07
19,GFPHNFQETTYLKPTFCDNCAGFLWGVIKQGYRCKDCGWNCHKQCKDLVVFECKK,-0.157 ± 0.058
20,GFPHNFQETTYLKPTFCDNCAGFLWGVIKQGYRCKDCGANCHKQCKDLVVFECKK,-0.111 ± 0.041
21,GFPHNFQETTYLKPTFCDNCAGFLWGVIKQGYRCKDCGYNCHKQCKDLVVFECKK,-0.1 ± 0.045
22,GFPHNFQETTYLKPTFCDNCAGFLWGVWKQGYRCKDCGMNCHKQCKDLVVFECKK,-0.111 ± 0.092
23,GFPHNFQETTYLKPTFCDNCAGFLWGVTKQGYRCKDCGMNCHKQCKDLVVFECKK,-0.116 ± 0.07
24,GFIHNFQETTYLKPTFCDNCAGFLWGVIKQGYRCKDCGMNCHKQCKDLVVFECKK,0.209 ± 0.12

row,Variant,abundance fitness
1,GFEHNFQETTYLKPTFCDNCAGFLWGVIKQGYRCKDCGMNCHKQCKDLVVFECKK,0.357 ± 0.13
2,GFPHNFQETTYLKPTFCDNCAGFLMGVIKQGYRCKDCGMNCHKQCKDLVVFECKK,-0.247 ± 0.13
3,GFPHNFQETTYLKPTFCDNCAGFLWGVIKQGYRCKDCGMYCHKQCKDLVVFECKK,-0.285 ± 0.055
4,GFPHNFQETTYLKPTFCDNCAGFLWGVIKQGYRCKDCGMECHKQCKDLVVFECKK,-0.082 ± 0.061
5,GFPHNFQETTYLKPTFCDNCAGFLWGVIKQGYRCKDCGMNCHKLCKDLVVFECKK,-0.057 ± 0.087
6,GFPHNFQETTYLKPTFCDNCAGFLWGVIKQGYRCKDCGMNCHKKCKDLVVFECKK,0.043 ± 0.099
7,GFPHNFQETTYLKPTFCDNCAGFLWGVIKIGYRCKDCGMNCHKQCKDLVVFECKK,-0.872 ± 0.24
8,GFPHNFQETTYLKPTFCDNCAGFLWGVIKHGYRCKDCGMNCHKQCKDLVVFECKK,-0.663 ± 0.21
9,GFPHNFQETTYLKPCFCDNCAGFLWGVIKQGYRCKDCGMNCHKQCKDLVVFECKK,-0.327 ± 0.2
10,GFPHNFQETTYLKPVFCDNCAGFLWGVIKQGYRCKDCGMNCHKQCKDLVVFECKK,-0.425 ± 0.063
11,GFPHNFQETTYLKPTFCDNCAGFLWGVIKQGYRCKDCNMNCHKQCKDLVVFECKK,0.062 ± 0.14
12,GFPHNFQETTYLKPTFCDNCAGFLWGVIKQGYRCKDCGMNCHWQCKDLVVFECKK,-0.481 ± 0.16
13,GFPHNFQETTYLKPTFCDNCAGFLWGVIKQGYRCKDCGMNCHKQCYDLVVFECKK,-0.052 ± 0.092
14,GFPHNFQETTYLKPTFCDNCAGFLWGVIKQGYRCKFCGMNCHKQCKDLVVFECKK,-0.108 ± 0.16
15,GFPHNFQETTYLKPTFCDNCAGFLWGVIKQGYRCKACGMNCHKQCKDLVVFECKK,-0.146 ± 0.069
16,GFPHNFQETTYLKPTFCDNCAGFLWGVIKQGYRCKKCGMNCHKQCKDLVVFECKK,-0.139 ± 0.1
17,GFPHNFQECTYLKPTFCDNCAGFLWGVIKQGYRCKDCGMNCHKQCKDLVVFECKK,-0.035 ± 0.12
18,GFPHNFQEKTYLKPTFCDNCAGFLWGVIKQGYRCKDCGMNCHKQCKDLVVFECKK,-0.473 ± 0.15
19,GFPHNFQEGTYLKPTFCDNCAGFLWGVIKQGYRCKDCGMNCHKQCKDLVVFECKK,-0.273 ± 0.098
20,GFPHNFQESTYLKPTFCDNCAGFLWGVIKQGYRCKDCGMNCHKQCKDLVVFECKK,0.028 ± 0.067
21,GFPHNFQETTYLKPTFCDNCAGFLWGVIKQGYRCKDCGMNCHKQCKDLVAFECKK,-0.064 ± 0.1
22,GFPHNFQETTYLKPTFCDNCAGFLWGVIKQGYRCKDCGMNCHKQCKDLVMFECKK,0.043 ± 0.11
23,GFPHNFQETTYLKPTFCDNCAGFLWGVIKQGYRCKDCGMNCHKQCKDLVEFECKK,0.037 ± 0.061
24,GFPHNFQETTYLKPTWCDNCAGFLWGVIKQGYRCKDCGMNCHKQCKDLVVFECKK,-0.376 ± 0.12

# Reference: the Human Domainome abundance scans (Beltran et al. 2025)
